Earlier results as cited in article PMC2846645.
Read-outs that look alike come from different tables or passages of the source.

Experiments:
Experiment in all cases: surface plasmon resonance
[1] = target: GABAA receptor beta3 subunit 400-412 (UniProt P28472)
[2] = target: GABAA receptor gamma2 subunit Y365/Y367 motif (UniProt P18507)
[3] = target: GABAA receptor beta3 subunit 400-412 (UniProt P28472); remark: listed apart in the source

- Kd [1]: 0.3 µM
- Kd [2]: 0.04 µM
- Kd [3]: 1.9 µM
Substance: AP2 mu2 (from UniProt Q96CW1)
